The values below come from the Human Domainome abundance scans (Beltran et al. 2025).

± gives the uncertainty stated by the source.

B1: Protein maelstrom homolog, residues 3 to 71; numbered along this chain, Q96JY0 (parent)
chain: NRKASRNAYYFFVQEKIPELRRRGLPVARVADAIPYCSSDWALLREEEKEKYAEMAREWRAAQGKDPGP

The variants in this data set derive from B1. Put plainly: abundance fitness (aPCA) (normalised: wild type 0, dead -1); higher = more abundant; growth selection in yeast, the domain comes from the species named. The following applies: Homo sapiens.
As to NRKASRNAYYFFVQEKIPELRRRGLPVARVEDAIPYCSSDWALLREEEKEKYAEMAREWRAAQGKDPGP [A31E], the abundance fitness was 0.131 ± 0.093.
With NRKASRNAYYFFVQEKIPELRRRGLPVARVGDAIPYCSSDWALLREEEKEKYAEMAREWRAAQGKDPGP [A31G], the abundance fitness is -0.099 ± 0.062.
For the variant NRKASRNAYYFFVQEKIPELRRRGLPVARVKDAIPYCSSDWALLREEEKEKYAEMAREWRAAQGKDPGP [A31K], the abundance fitness amounted to 0.161 ± 0.082.
In the case of NRKASRNAYYFFVQEKIPELRRRGLPVARVRDAIPYCSSDWALLREEEKEKYAEMAREWRAAQGKDPGP [A31R], the abundance fitness was -0.06 ± 0.058.
With NRKASRNAYYFFVQEKIPELRRRGLPVARVLDAIPYCSSDWALLREEEKEKYAEMAREWRAAQGKDPGP [A31L], the abundance fitness is -0.291 ± 0.09.
For NRKASRNAYYFFVQEKIPELRRRGLPVARVQDAIPYCSSDWALLREEEKEKYAEMAREWRAAQGKDPGP [A31Q] the value was -0.21 ± 0.11; for NRKASRNAYYFFVQEKIPELRRRGLPVARVIDAIPYCSSDWALLREEEKEKYAEMAREWRAAQGKDPGP [A31I], -0.603 ± 0.27; for NRKASRNAYYFFVQEKIPELRRRGLPVARVSDAIPYCSSDWALLREEEKEKYAEMAREWRAAQGKDPGP [A31S], -0.047 ± 0.1.
Regarding NRKASRNAYYFFVQEKIPELRRRGLPVARVCDAIPYCSSDWALLREEEKEKYAEMAREWRAAQGKDPGP [A31C], the abundance fitness amounted to 0.085 ± 0.09.
On to NRKASRNAYYFFVQEKIPELRRRGLPVARVPDAIPYCSSDWALLREEEKEKYAEMAREWRAAQGKDPGP [A31P], for which the abundance fitness was -0.019 ± 0.15.
For NRKASRNAYYFFVQEKIPELRRRGLPVARVYDAIPYCSSDWALLREEEKEKYAEMAREWRAAQGKDPGP [A31Y] the value was -0.178 ± 0.17.
On to NRKASRNAYYFFVQEKIPELRRRGLPVARVVDAIPYCSSDWALLREEEKEKYAEMAREWRAAQGKDPGP [A31V], for which the abundance fitness was -0.1 ± 0.072.
Consider NRKASRNAYYFFVQEKIPELRRRGLPVARVWDAIPYCSSDWALLREEEKEKYAEMAREWRAAQGKDPGP [A31W], for which the abundance fitness is -0.286 ± 0.082.
As for NRKASRNAYYFFVQEKIPELRRRGLPVARKADAIPYCSSDWALLREEEKEKYAEMAREWRAAQGKDPGP [V30K], the abundance fitness is -0.514 ± 0.087.
For NRKASRNAYYFFVQEKIPELRRRGLPVARRADAIPYCSSDWALLREEEKEKYAEMAREWRAAQGKDPGP [V30R] the value was -0.614 ± 0.053; for NRKASRNAYYFFVQEKIPELRRRGLPVARYADAIPYCSSDWALLREEEKEKYAEMAREWRAAQGKDPGP [V30Y], -0.09 ± 0.13.
Turning to NRKASRNAYYFFVQEKIPELRRRGLPVARGADAIPYCSSDWALLREEEKEKYAEMAREWRAAQGKDPGP [V30G], the abundance fitness was -0.607 ± 0.061.
With NRKASRNAYYFFVQEKIPELRRRGLPVARDADAIPYCSSDWALLREEEKEKYAEMAREWRAAQGKDPGP [V30D], the abundance fitness was -0.518 ± 0.17.
Consider NRKASRNAYYFFVQEKIPELRRRGLPVARIADAIPYCSSDWALLREEEKEKYAEMAREWRAAQGKDPGP [V30I], for which the abundance fitness is -0.652 ± 0.32.
For NRKASRNAYYFFVQEKIPELRRRGLPVARWADAIPYCSSDWALLREEEKEKYAEMAREWRAAQGKDPGP [V30W] the value was -0.225 ± 0.067; for NRKASRNAYYFFVQEKIPELRRRGLPVARQADAIPYCSSDWALLREEEKEKYAEMAREWRAAQGKDPGP [V30Q], -0.567 ± 0.093.
As for NRKASRNAYYFFVQEKIPELRRRGLPVARNADAIPYCSSDWALLREEEKEKYAEMAREWRAAQGKDPGP [V30N], the abundance fitness was -0.559 ± 0.24.
Next, NRKASRNAYYFFVQEKIPELRRRGLPVARPADAIPYCSSDWALLREEEKEKYAEMAREWRAAQGKDPGP [V30P]: 0.113 ± 0.087; NRKASRNAYYFFVQEKIPELRRRGLPVARFADAIPYCSSDWALLREEEKEKYAEMAREWRAAQGKDPGP [V30F]: -0.226 ± 0.14.
Next, NRKASRNAYYFFVQEKIPELRRRGLPVARCADAIPYCSSDWALLREEEKEKYAEMAREWRAAQGKDPGP [V30C]: -0.174 ± 0.093; NRKASRNAYYFFVQEKIPELRRRGLPVARSADAIPYCSSDWALLREEEKEKYAEMAREWRAAQGKDPGP [V30S]: -0.238 ± 0.082; NRKASRNAYYFFVQEKIPELRRRGLPVARAADAIPYCSSDWALLREEEKEKYAEMAREWRAAQGKDPGP [V30A]: -0.286 ± 0.059.
Regarding NRKASRNAYYFFVQEKIPELRRRGLPVAREADAIPYCSSDWALLREEEKEKYAEMAREWRAAQGKDPGP [V30E], the abundance fitness is -0.272 ± 0.068.
For NRKASRNAYYFFVQEKIPELRRRGLPVARHADAIPYCSSDWALLREEEKEKYAEMAREWRAAQGKDPGP [V30H] the value was -0.17 ± 0.11; for NRKASRNAYYFFVQEKIPELRRRGLPVARMADAIPYCSSDWALLREEEKEKYAEMAREWRAAQGKDPGP [V30M], -0.164 ± 0.09; for NRKASRNAYYFFVQEKIPELRRRGLPSARVADAIPYCSSDWALLREEEKEKYAEMAREWRAAQGKDPGP [V27S], -0.104 ± 0.087.
As to NRKASRNAYYFFVQEKIPELRRRGLPWARVADAIPYCSSDWALLREEEKEKYAEMAREWRAAQGKDPGP [V27W], the abundance fitness is -0.584 ± 0.1.
As to NRKASRNAYYFFVQEKIPELRRRGLPTARVADAIPYCSSDWALLREEEKEKYAEMAREWRAAQGKDPGP [V27T], the abundance fitness is -0.235 ± 0.17.
On to NRKASRNAYYFFVQEKIPELRRRGLPQARVADAIPYCSSDWALLREEEKEKYAEMAREWRAAQGKDPGP [V27Q], for which the abundance fitness is -1.08 ± 0.21.
As to NRKASRNAYYFFVQEKIPELRRRGLPRARVADAIPYCSSDWALLREEEKEKYAEMAREWRAAQGKDPGP [V27R], the abundance fitness is -0.742 ± 0.077.
As for NRKASRNAYYFFVQEKIPELRRRGLPVMRVADAIPYCSSDWALLREEEKEKYAEMAREWRAAQGKDPGP [A28M], the abundance fitness is -0.319 ± 0.21.
On to NRKASRNAYYFFVQEKIPELRRRGLPVSRVADAIPYCSSDWALLREEEKEKYAEMAREWRAAQGKDPGP [A28S], for which the abundance fitness is -0.324 ± 0.31.
Next, NRKASRNAYYFFVQEKIPELRRRGLPVARVAFAIPYCSSDWALLREEEKEKYAEMAREWRAAQGKDPGP [D32F]: -0.956 ± 0.28; NRKASRNAYYFFVQEKIPELRRRGLPVARVAGAIPYCSSDWALLREEEKEKYAEMAREWRAAQGKDPGP [D32G]: -0.794 ± 0.084.
